Measurements as given in US20100239605A1.

Columns and labels:
[1] = biological target: HRV14-NimII-XXX23AA library (Human rhinovirus 14; influenza type A virus) (UniProt P03303); assay: cell-based or functional assay
[2] = biological target: HRV14-NimII-XXX17AA library (Human rhinovirus 14; influenza type A virus) (UniProt P03303); assay: cell-based or functional assay

## anti-M2e Mab 14C2 (Abcam, Inc; Cat# ab5416) (antibody)
[1]
  Fifty-percent neutralization (PRNT) (reciprocal dilution of 1 mg/ml stock): 2e+06
[2]
  Fifty-percent neutralization (PRNT) (reciprocal dilution of 1 mg/ml stock): 2e+06
